Source: patent publication US6072039, “Hybrid polypeptide comparing a biotinylated avidin binding polypeptide fused to a polypeptide of interest” (Rohm and Haas Company, dated 2000)

Legend:
[1] = target: T1, avidin monomer affinity resin (Gallus gallus (Chicken), UniProt P02701); test: avidin monomer affinity column, cyanogen bromide cleavage mixture; by Procedure XI the polypeptide of interest is not retained and is collected in the column flowthrough
Method: (§1) The crude extract is applied to a 4 mm×5 cm column packed with avidin monomer affinity resin (U.S. Ser. No. 414,785) on a LKB HPLC system equipped with two Model 2150 pumps, Model 2152 controller, and a Model 2140 spectral detector. Sample absorbance is monitored at 280 nm. The crude extract is applied in 100 mM potassium phosphate buffer, pH 6.8 to 7.2 (or other appropriate buffer at a pH of 4.0 to 11.0) at a flow rate of 0.1 ml/min to a column equilibrated with the same buffer. After the sample is loaded, the column is washed with phosphate buffer at a flow rate of 1 ml/min until absorbance returned to the baseline absorbance, and all nonbound material is washed from the resin. The column is then equilibrated with water, followed by application of 5 ml of 2M NaCl. The column is reequilibrated with water. This same NaCl-water wash procedure is repeated four to five times. The sample is eluted using acetic acid or biotin, as detailed in Procedure IX.
The hybrid polypeptide is dissolved in 70% (v/v) aqueous formic acid at 23° C. A 50 molar excess of cyanogen bromide is added in a small volume of 70% formic acid, with stirring. The mixture is incubated in the dark under nitrogen at 20–25° C. for 16 to 24 hours. The mixture is then diluted with 10 volumes of water and freeze-dried. Highly pure polypeptide of interest is obtained by Procedure VIII.
Procedure XI. […]

[2] = target: T1, avidin monomer affinity resin; test: avidin monomer affinity column, formic acid cleavage mixture; by Procedure XI the polypeptide of interest is not retained and is collected in the column flowthrough
Method: as §1
Procedure XI. Separation of the Polypeptide of Interest from the Polypeptide for Attachment The dried polypeptide mixture is resuspended in avidin monomer column loading buffer, 100 mM phosphate buffer pH 6.8–7.2, or other appropriate buffer at a pH of between 4.0 and 11.0. Highly pure polypeptide of interest is obtained by passing the cleaved polypeptide mixture over the avidin resin using the procedure described above. […]

Row | binding result [1] | binding result [2] | Binder
1 | no binding | – | YGGFLTSEKSQTPLVTLFKNAIIKNAYKKGE [β-endorphin cleaved from the hybrid polypeptide by cyanogen bromide (Examples 3 and 6)]
2 | – | no binding | PMYGGFLTSEKSQTPLVTLFKNAIIKNAYKKGE [β-endorphin cleaved from the 1.3S:β-endorphin hybrid by formic acid (Example 2)]
